Experimental findings from paper PMC5669894 (2017) are described below.

Read-outs that look alike come from different tables or passages of the source.

In experiment [1] the target is T1, C-terminal SH3 domain of the growth factor receptor-bound protein 2 (Grb2) (UniProt P62993 158-211).
The target in experiment [2] is T1, C-terminal SH3 domain of the growth …. The source holds these as a separate data set.
Experiment [3] shares this target. This is another data set of the same source.

T1 sequence (P62993 156-215): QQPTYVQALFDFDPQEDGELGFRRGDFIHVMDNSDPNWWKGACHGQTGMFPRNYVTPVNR

SRGSEIQAPPVNRNLKPDRKAK [Gab2 503-524 peptide, variant P510A] had a koff in experiment [1] of 100 s⁻¹.
Take SRGSEIQPPPVNRNLKADRKAK [Gab2 503-524 peptide, variant P519A]: the dissociation rate constant (koff) in experiment [2] is 250 s⁻¹.
In experiment [3], SRGSEIQPPAVNRNLKPDRKAK [Gab2 503-524 peptide, variant P512A] gave a koff of 90 s⁻¹.

Usually koff stands for a measure of how fast the partners let go of each other. High values mean a short-lived complex, low ones a long-lived complex.
